Bounds are passed on as bounds.

Broadly, the Kd is the constant that tells how readily two partners part at equilibrium. What is called koff is the first-order rate constant of dissociation. As a reminder, the kon is a measure of how fast the partners come together. Read a high kon as faster complex formation.

The target of assay [1] is T1, IL-2R CD122-CD132 on Jurkat-PD1+CD122+ cells (UniProt P14784 27-551; P31785 23-369).
T1 sequence (looked up) 1: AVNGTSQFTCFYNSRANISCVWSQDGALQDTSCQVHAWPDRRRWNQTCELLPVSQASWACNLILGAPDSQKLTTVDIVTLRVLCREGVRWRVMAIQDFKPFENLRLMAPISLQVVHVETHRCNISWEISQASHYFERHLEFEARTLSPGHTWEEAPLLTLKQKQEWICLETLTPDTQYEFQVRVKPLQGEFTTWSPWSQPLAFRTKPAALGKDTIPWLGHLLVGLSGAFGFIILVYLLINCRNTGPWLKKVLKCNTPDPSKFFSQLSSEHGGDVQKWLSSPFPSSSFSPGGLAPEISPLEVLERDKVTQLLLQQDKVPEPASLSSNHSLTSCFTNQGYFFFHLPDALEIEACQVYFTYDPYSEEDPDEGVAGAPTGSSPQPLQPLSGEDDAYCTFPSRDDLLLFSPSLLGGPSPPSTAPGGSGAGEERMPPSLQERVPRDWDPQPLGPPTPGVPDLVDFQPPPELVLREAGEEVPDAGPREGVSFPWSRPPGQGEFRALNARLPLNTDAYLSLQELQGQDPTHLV
T1 sequence (looked up) 2: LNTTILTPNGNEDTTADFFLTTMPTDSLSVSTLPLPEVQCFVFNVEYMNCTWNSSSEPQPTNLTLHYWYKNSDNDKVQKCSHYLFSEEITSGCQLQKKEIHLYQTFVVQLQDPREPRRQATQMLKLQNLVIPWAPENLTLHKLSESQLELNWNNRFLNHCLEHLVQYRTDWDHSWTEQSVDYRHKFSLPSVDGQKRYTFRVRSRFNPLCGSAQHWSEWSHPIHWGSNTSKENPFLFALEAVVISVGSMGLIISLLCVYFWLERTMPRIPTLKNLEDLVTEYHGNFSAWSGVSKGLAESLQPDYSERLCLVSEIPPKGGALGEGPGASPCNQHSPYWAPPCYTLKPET
Put plainly: cell-based or functional assay.

In assay [2] the target is T2, recombinant hPD-1 (construct not stated) (human, UniProt Q15116 25-167, limits assumed).
T2 construct: also called huPD-1; Human PD1
Description: BLI, supernatants. The text has this:
In order to remove an N-glycosylation site present in the CDR-L1, mutations were inserted in the CDR-L1 of 21A08. The first asparagine ([…], N) in CDR-L1, was replaced by a serine (Ser, S), Glutamine (Gln, Q), or Alanine (Ala, A).

The target in assay [3] is T3, cynoPD-1 His (AcroBiosystems PD1-C5223) (cynomolgus monkey, UniProt B0LAJ3 25-170).
T3 construct: also called cPD-1; cynomolgus PD-1 His-tagged
Put plainly: SPR, Ab captured, PD-1 analyte. As to the method: (§1) 10 mM glycine (pH 1.5) as regeneration buffer was injected to flow cells following every dissociation phase.

The target of a further assay is T4, hPD-1 His-tagged (human, UniProt Q15116 25-167).
T4 construct: also called recombinant hPD-1 (AcroBio)
Put plainly: SPR, Ab captured, PD-1 analyte. The protocol: as §1

T3 sequence (B0LAJ3 entry or part of it limits assumed): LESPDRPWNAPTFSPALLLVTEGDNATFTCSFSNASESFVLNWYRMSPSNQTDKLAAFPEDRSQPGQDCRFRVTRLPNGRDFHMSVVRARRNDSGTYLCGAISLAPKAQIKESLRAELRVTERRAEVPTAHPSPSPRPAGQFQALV
T2 sequence (Q15116 25-167 limits assumed): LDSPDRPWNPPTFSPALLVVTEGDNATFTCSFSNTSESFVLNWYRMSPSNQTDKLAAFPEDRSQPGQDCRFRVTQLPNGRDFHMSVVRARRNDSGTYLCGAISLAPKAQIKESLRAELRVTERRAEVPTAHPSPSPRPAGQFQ
T4 sequence (Q15116 25-167 limits assumed): as above

B1: YPW986 (bispecific antibody, human IgG1, kappa, L234A L235A)
heavy 1: EVQLLESGGGLVQPGGSLRLSCAASGFTFSINAMTWVRQAPGKGLEWVSTISGSGFSTYYADSLKGRFTISRDNSKNTLYLQMNSLRAEDTAVYYCAKEVYGDYWGQGTLVTVSSASVAAPSVFIFPPSDEQLKSGTASVVCLLNNFYPREAKVQWKVDNALQSGNSQESVTEQDSKDSTYSLSSTLTLSKADYEKHKVYACEVTHQGLSSPVTKSFNRGECDKTHTCPPCPAPEAAGGPSVFLFPPKPKDTLMISRTPEVTCVVVDVSHEDPEVKFNWYVDGVEVHNAKTKPREEQYNSTYRVVSVLTVLHQDWLNGKEYKCKVSNKALAAPIEKTISKAKGQPREPQVYTLPPSREEMTKNQVSLTCLVKGFYPSDIAVEWESNGQPENNYKTTPPVLDSDGSFFLTSKLTVDKSRWQQGNVFSCSVMHEALHNHYTQKSLSLSPGK
light 1: RSVLTQPPSASGTPGQRVSISCSGASSNIGSQSVFWYQQLPGTAPKLLIYSNNQRPSGVPDRFSGSKSGTSASLAISGLRSEDEADYYCAAWDDSLSIWVFGGGTKLTVLSSASTKGPSVFPLAPSSKSTSGGTAALGCLVKDYFPEPVTVSWNSGALTSGVHTFPAVLQSSGLYSLSSVVTVPSSSLGTQTYICNVNHKPSNTKVDKRVEPKSC
heavy 2: EVQLVQSGAEVKKPGESLKISCKGSGYAFTNYLIEWVRQMPGKGLEWMGVINPGSGGTNYNEKFKGQVTISADKSISTAYLQWSSLKASDTAMYYCARWRGEGYYAYFDVWGQGTTVTVSSASTKGPSVFPLAPSSKSTSGGTAALGCLVKDYFPEPVTVSWNSGALTSGVHTFPAVLQSSGLYSLSSVVTVPSSSLGTQTYICNVNHKPSNTKVDKRVEPKSCDKTHTCPPCPAPEAAGGPSVFLFPPKPKDTLMISRTPEVTCVVVDVSHEDPEVKFNWYVDGVEVHNAKTKPREEQYNSTYRVVSVLTVLHQDWLNGKEYKCKVSNKALAAPIEKTISKAKGQPREPQVYTLPPSREEMTKNQVSLYCLVKGFYPSDIAVEWESNGQPENNYKTTPPVLDSDGSFFLYSKLTVDKSRWQQGNVFSCSVMHEALHNHYTQKSLSLSPGK
light 2: not shown
As for B1, in assay [1], the “EC50 value for pSTAT5 induction, Jurkat-PD-1+CD122+ cells” value (from here on “EC50 value for pSTAT5 induction”) was 43.9 nM.

B2: LTJ498 (bispecific antibody, human IgG1, lambda, L234A L235A)
heavy 1: EVQLLESGGGLVQPGGSLRLSCAASGFTFSINAMTWVRQAPGKGLEWVSTISGSGFSTYYADSLKGRFTISRDNSKNTLYLQMNSLRAEDTAVYYCAKEVYGDYWGQGTLVTVSSASTKGPSVFPLAPSSKSTSGGTAALGCLVKDYFPEPVTVSWNSGALTSGVHTFPAVLQSSGLYSLSSVVTVPSSSLGTQTYICNVNHKPSNTKVDKRVEPKSCDKTHTCPPCPAPEAAGGPSVFLFPPKPKDTLMISRTPEVTCVVVDVSHEDPEVKFNWYVDGVEVHNAKTKPREEQYNSTYRVVSVLTVLHQDWLNGKEYKCKVSNKALAAPIEKTISKAKGQPREPQVYTLPPSREEMTKNQVSLTCLVKGFYPSDIAVEWESNGQPENNYKTTPPVLDSDGSFFLTSKLTVDKSRWQQGNVFSCSVMHEALHNHYTQKSLSLSPGK
light: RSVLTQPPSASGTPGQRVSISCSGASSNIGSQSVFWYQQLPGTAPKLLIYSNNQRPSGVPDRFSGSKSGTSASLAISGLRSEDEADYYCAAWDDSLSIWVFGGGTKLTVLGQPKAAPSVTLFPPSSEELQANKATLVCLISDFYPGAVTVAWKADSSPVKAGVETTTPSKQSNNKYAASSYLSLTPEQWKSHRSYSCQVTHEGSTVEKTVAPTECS
heavy 2: AIRLTQSPSSFSASTGDRVTITCKASQSVDYGGGNFHLRPRDLISNINVIVLELKGSETTFMCEYADETATIVEFLNRWITFSQSIISTLTPTSSSTKKTQLQLEHLLLDLQMILNGINNYKNPKLTRMLTFKFYMPKKATELKHLQCLEEELKPLEEVLNLAQSKGGGGDSYMNWYQQKPGKAPKLLIYAASNLESGVPSRFSGSGSGTDFTLTISSLQSEDFATYYCQQSNEDPYTFGGGTKVEIKGGGGSGGGGSGGGGSEVQLVQSGAEVKKPGESLKISCKGSGYAFTNYLIEWVRQMPGKGLEWMGVINPGSGGTNYNEKFKGQVTISADKSISTAYLQWSSLKASDTAMYYCARWRGEGYYAYFDVWGQGTTVTVSSGGGGSGGGGSEVQLLESGGGLVQPGGSLRLSCAASGFTFSINAMTWVRQAPGKGLEWVSTISGSGFSTYYADSLKGRFTISRDNSKNTLYLQMNSLRAEDTAVYYCAKEVYGDYWGQGTLVTVSSASTKGPSVFPLAPSSKSTSGGTAALGCLVKDYFPEPVTVSWNSGALTSGVHTFPAVLQSSGLYSLSSVVTVPSSSLGTQTYICNVNHKPSNTKVDKRVEPKSCDKTHTCPPCPAPEAAGGPSVFLFPPKPKDTLMISRTPEVTCVVVDVSHEDPEVKFNWYVDGVEVHNAKTKPREEQYNSTYRVVSVLTVLHQDWLNGKEYKCKVSNKALAAPIEKTISKAKGQPREPQVYTLPPSREEMTKNQVSLYCLVKGFYPSDIAVEWESNGQPENNYKTTPPVLDSDGSFFLYSKLTVDKSRWQQGNVFSCSVMHEALHNHYTQKSLSLSPGK
For B2, in assay [1], the “EC50 value for pSTAT5 induction” value came to 0.24 nM.

B3: XWY176 (bispecific antibody, human IgG1, kappa, lambda, L234A L235A)
heavy 1: EVQLLESGGGLVQPGGSLRLSCAASGFTFSINAMTWVRQAPGKGLEWVSTISGSGFSTYYADSLKGRFTISRDNSKNTLYLQMNSLRAEDTAVYYCAKEVYGDYWGQGTLVTVSSASTKGPSVFPLAPSSKSTSGGTAALGCLVKDYFPEPVTVSWNSGALTSGVHTFPAVLQSSGLYSLSSVVTVPSSSLGTQTYICNVNHKPSNTKVDKRVEPKSCDKTHTCPPCPAPEAAGGPSVFLFPPKPKDTLMISRTPEVTCVVVDVSHEDPEVKFNWYVDGVEVHNAKTKPREEQYNSTYRVVSVLTVLHQDWLNGKEYKCKVSNKALAAPIEKTISKAKGQPREPQVYTLPPSREEMTKNQVSLTCLVKGFYPSDIAVEWESNGQPENNYKTTPPVLDSDGSFFLTSKLTVDKSRWQQGNVFSCSVMHEALHNHYTQKSLSLSPGK
light 1: not shown
heavy 2: EVQLVQSGAEVKKPGESLKISCKGSGYAFTNYLIEWVRQMPGKGLEWMGVINPGSGGTNYNEKFKGQVTISADKSISTAYLQWSSLKASDTAMYYCARWRGEGYYAYFDVWGQGTTVTVSSASTKGPSVFPLAPSSKSTSGGTAALGCLVKDYFPEPVTVSWNSGALTSGVHTFPAVLQSSGLYSLSSVVTVPSSSLGTQTYICNVNHKPSNTKVDKRVEPKSCDKTHTCPPCPAPEAAGGPSVFLFPPKPKDTLMISRTPEVTCVVVDVSHEDPEVKFNWYVDGVEVHNAKTKPREEQYNSTYRVVSVLTVLHQDWLNGKEYKCKVSNKALAAPIEKTISKAKGQPREPQVYTLPPSREEMTKNQVSLYCLVKGFYPSDIAVEWESNGQPENNYKTTPPVLDSDGSFFLYSKLTVDKSRWQQGNVFSCSVMHEALHNHYTQKSLSLSPGK
light 2: not shown
As to B3, in assay [1], the “EC50 value for pSTAT5 induction” value is 0.27 nM.

B4: 21A08Q (antibody, V domains shown)
VH: EVQLLESGGGLVQPGGSLRLSCAASGFTFSINAMTWVRQAPGKGLEWVSTISGSGFSTYYADSLKGRFTISRDNSKNTLYLQMNSLRAEDTAVYYCAKEVYGDYWGQGTLVTVSS
VL: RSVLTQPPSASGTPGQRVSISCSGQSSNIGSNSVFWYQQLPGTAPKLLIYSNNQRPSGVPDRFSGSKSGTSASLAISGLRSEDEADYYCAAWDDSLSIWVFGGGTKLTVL
notes: position not given
For B4, in assay [2], the Kd is 3.39 nM and the koff was 0.000267 s⁻¹.

B5: 21A08A (antibody, V domains shown)
VH: EVQLLESGGGLVQPGGSLRLSCAASGFTFSINAMTWVRQAPGKGLEWVSTISGSGFSTYYADSLKGRFTISRDNSKNTLYLQMNSLRAEDTAVYYCAKEVYGDYWGQGTLVTVSS
VL: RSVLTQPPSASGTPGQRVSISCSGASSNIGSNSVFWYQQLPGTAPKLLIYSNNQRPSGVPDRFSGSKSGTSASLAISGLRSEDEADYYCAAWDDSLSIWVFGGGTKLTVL
notes: position not given
For the molecule B5, the Kd in assay [2] is 1.81 nM; in assay [3], 1.7 nM; in the assay with hPD-1 His-tagged, less than 0.16 nM. Besides, the koff in assay [2] was 0.000181 s⁻¹; in assay [3], 9.6e-05 s⁻¹; with hPD-1 His-tagged, less than 1e-05 s⁻¹. The kon in assay [3] is 56000 M⁻¹ s⁻¹; in the assay with hPD-1 His-tagged, 63000 M⁻¹ s⁻¹.

B6: 21A08S (antibody, V domains shown)
VH: EVQLLESGGGLVQPGGSLRLSCAASGFTFSINAMTWVRQAPGKGLEWVSTISGSGFSTYYADSLKGRFTISRDNSKNTLYLQMNSLRAEDTAVYYCAKEVYGDYWGQGTLVTVSS
VL: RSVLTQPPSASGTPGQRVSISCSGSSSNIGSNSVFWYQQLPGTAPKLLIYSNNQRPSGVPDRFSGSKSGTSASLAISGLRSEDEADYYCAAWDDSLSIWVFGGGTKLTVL
notes: position not given; tested as supernatant
With B6, in assay [2], the Kd was 2.47 nM and the koff was 0.000184 s⁻¹.

The values are drawn from US20260207767A1 (ANAVEON, published 2026).
